The data set is described as follows: Parallel artificial membrane permeability assay (PAMPA) mimicking BBB. In kind it is in vitro ADME. Conditions: for PAMPA permeability Pe: precoated PAMPA plate, 40 μM in PBS, 5 h, room temperature, ICP-MS. As for the experimental part:
A parallel artificial membrane permeability assay was performed in a 96-well precoated PAMPA plate system (Corning Gentest # 353015). The experimental solutions of DGC were prepared by diluting the stock solutions (10 mM) in PBS at a final concentration of 40 μM and then added to the donor portion of the plate (300 μL/well), while PBS (200 μL/well) was added to the acceptor portion, and the DMSO concentration was lower than 1%. The filter plate was then coupled with the receiver plate, and the plate assembly was incubated at room temperature without agitation for 5 h. Samples of the initial donor solution (C0) were collected and stored at 4 °C. At the end of the incubation, samples were collected from the donor and acceptor plates and then added to aqua regia (HCl: HNO3, volume ratio = 3:1). The C0 samples were treated similarly. The final concentrations of DGC in the donor, acceptor, and T0 wells were quantified by the ICP-MS system (Thermo Elemental X7, USA). The results were used to calculate an effective permeability (Pe, cm/s) value. Permeability of DGC was calculated using the following Eq. (1):1 Pe={-ln[1-CA(t)/Ceq]}/[A×(1/VD+1/VA)×t] Where A = filter area (0.3 cm^2), t = incubation time (seconds), CA(t) = compound concentration in acceptor well at time t, VD = donor well volume (0.3 mL), VA = acceptor well volume (0.2 mL), CD(t) = compound concentration in donor well at time t, and Ceq was calculated using the following Eq. (2):2 Ceq=[CD(t)×VD+CA(t)×VA]/(VD+VA)
(The PAMPA barrier holds no transporters, so it reflects passive diffusion.)

Ends that are not written are not given here.

Turning to “DGC: CTGF-targeting peptide-coated gold nanocluster: one Au26 gold nanocluster coated by eight DAG cyclic peptides, NIR-II and red fluorescence (CDAGRKQKC; also: cyclic peptide, ring not given here, eight peptides on one Au26 nanocluster via Cys Au-S bonds)”, for the setting “40 μM”, the “BBB permeability class (PAMPA)” value is “high BBB permeability”. Also, the “PAMPA permeability Mean Pe” value (at several concentrations) is listed as “higher than 1.5 * 10^-6 cm/s”. Further, the “PAMPA permeability Pe” value is, setting by setting: (replicate 1) 2.121 ×10⁻⁶ cm/s; (replicate 2) 2.6 ×10⁻⁶ cm/s; (replicate 3) 1.724 ×10⁻⁶ cm/s.

The record behind these values is paper PMC11169542, “A probe for NIR-II imaging and multimodal analysis of early Alzheimer’s disease by targeting CTGF” (Nature Communications, 2024).
